In PMC4215112 (2014):

B1: M0418 scFv-Fcε fusion protein [human] / Bet v 1.0101 peptide I56 to D69 [modified: biotin at the N-terminus, before the additional glycine; biotin at the N-terminus, before the additional glycine] [birch] (parent complex)
chain 1: QVQLVQSGAEVKKPGESLKISCKGSEYSFPNYWIAWVRQMPGKGLEWMGMIYPGDSDTRYSPSFQGQVNISADKSSRTAFLEWSSLKASDSATYFCARLGGQLWNSYYYYYYMDVWGKGTTVTVSSGGGGSGGGGSGGGGSSYELTQPPSASGTPGQRVTISCSGSSSNIGGNTVNWYQQVPGTAPRLLIYKNNQRPSGVPDRFSGSKSGTSASLAISGLRSEDEADYYCEAWDGGLRGGVFGGGTKLTVLGDYKDDDDKAAA
chain 2: GISFPEGFPFKYVKDG

Variants of: B1
Assay: ELISA; parent: 3.4; read off a plot

Point of comparison: chain 2 GISFPEGFPFEYVKDG [chain 2 K11E], response ~2 Absorbance (450 nm). Against it:
- chain 2 GISFPKGFPFKYVKDG [chain 2 E6K] — higher, ~3.4 Absorbance (450 nm)
- chain 2 GINFPEGFPFKYVKDG [chain 2 S3N] — higher, ~3.4 Absorbance (450 nm)
- chain 2 GITFPEGFPFKYVKDG [chain 2 S3T] — higher, ~3.4 Absorbance (450 nm)
- chain 2 GISFPEGLPFKYVKDG [chain 2 F8L] — lower, ~0.2 Absorbance (450 nm)
- chain 2 GISFPEGIPFKYVKDG [chain 2 F8I] — higher, ~2.8 Absorbance (450 nm)
- chain 2 GISFPEGSPFKYVKDG [chain 2 F8S] — lower, ~0.22 Absorbance (450 nm)
- chain 2 GISFPEGFPFRYVKDG [chain 2 K11R] — lower, ~0.22 Absorbance (450 nm)
- chain 2 GISFPEGFPFKYVKEG [chain 2 D15E] — higher, ~3.4 Absorbance (450 nm)
- chain 2 GISFPEGFPVKYVKDG [chain 2 F10V] — higher, ~3.4 Absorbance (450 nm)
- chain 2 GISFSEGFPFKYVKDG [chain 2 P5S] — lower, ~0.17 Absorbance (450 nm)
